This note sets out measurements from patent publication US20140127683.

Where two headings read alike, the source gives them in different places.

For data set [1], the target named is T1, mYOX1 (Naegleria gruberi) (UniProt D2W6T1).
T1 sequence: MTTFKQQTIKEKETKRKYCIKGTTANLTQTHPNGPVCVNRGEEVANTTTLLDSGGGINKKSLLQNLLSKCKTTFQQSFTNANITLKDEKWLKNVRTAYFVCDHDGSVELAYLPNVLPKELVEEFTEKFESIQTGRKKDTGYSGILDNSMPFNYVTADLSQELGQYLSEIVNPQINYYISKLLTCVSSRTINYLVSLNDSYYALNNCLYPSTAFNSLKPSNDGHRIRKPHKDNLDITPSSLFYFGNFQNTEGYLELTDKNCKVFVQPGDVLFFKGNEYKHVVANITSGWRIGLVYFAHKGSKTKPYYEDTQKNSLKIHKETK
Particulars: LC-MS, 20 uM mYOX1, Bis-TRIS pH 6.0, Fe(II), alpha-ketoglutarate.

The target in data set [2] is T1, mYOX1 (Naegleria gruberi). The conditions noted are these: LC-MS after NaBH4 reduction and T4-BGT, caC 29.3%, ghmC 67.7%, mC 3.0%.

For the substance IMR90 genomic DNA, in data set [1] (caC 89.1%, hmC 1.7%, fC 8.7%, mC 0.5%), the activity (% 5mC oxidized) amounted to 99.5. As to MG1655 genomic DNA, the activity (% 5mC oxidized) in data set [2] is 97.

With pTXB1-M.SssI plasmid, in data set [1] (caC 91.2%, hmC 1.8%, fC 5.9%, mC 1.0%), the activity (% 5mC oxidized) turned out to be 99.
